Assays:
[1] = target: Cell-surface full length amyloid precursor protein (APP) on HEK293T cells transfected with wild type APP DNA (UniProt P05067); assay: FMAT ABI8200, HEK293T cells transfected with wild type APP, mock subtracted; Experiment 2
[2] = target: Cell-surface full length amyloid precursor protein (APP) on HEK293T cells transfected with wild type APP DNA (UniProt P05067); assay: FMAT ABI8200, HEK293T cells transfected with wild type APP, mock subtracted; Experiment 1

Cell-surface full length amyloid precursor protein (APP) on HEK293T cells transfected with wild type APP DNA, sequence (P05067 18-770): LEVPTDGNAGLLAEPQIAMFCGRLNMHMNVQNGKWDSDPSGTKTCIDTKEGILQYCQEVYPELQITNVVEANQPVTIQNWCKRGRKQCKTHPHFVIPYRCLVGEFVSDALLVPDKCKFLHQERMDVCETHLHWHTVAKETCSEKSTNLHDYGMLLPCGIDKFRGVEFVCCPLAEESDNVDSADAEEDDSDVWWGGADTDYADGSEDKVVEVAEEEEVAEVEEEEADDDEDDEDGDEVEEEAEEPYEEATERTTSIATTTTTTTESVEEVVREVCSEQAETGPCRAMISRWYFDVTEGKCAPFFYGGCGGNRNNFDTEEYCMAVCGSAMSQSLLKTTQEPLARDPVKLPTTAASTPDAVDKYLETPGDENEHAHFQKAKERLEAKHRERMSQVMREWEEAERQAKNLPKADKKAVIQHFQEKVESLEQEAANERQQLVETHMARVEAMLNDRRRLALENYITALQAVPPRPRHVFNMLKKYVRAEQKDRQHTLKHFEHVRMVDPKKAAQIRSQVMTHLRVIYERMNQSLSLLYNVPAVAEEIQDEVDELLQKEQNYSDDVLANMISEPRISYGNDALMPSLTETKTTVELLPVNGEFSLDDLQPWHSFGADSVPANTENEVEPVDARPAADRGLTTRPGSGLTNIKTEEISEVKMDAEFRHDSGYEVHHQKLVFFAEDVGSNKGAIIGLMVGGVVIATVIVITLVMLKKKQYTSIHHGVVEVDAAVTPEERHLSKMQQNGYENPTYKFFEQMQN

| % of LN27 binding [1] [%] | % of LN27 binding [2] [%] | Substance |
| --- | --- | --- |
| 2 | 5.5 | Antibody G210 which recognises the x-40 form of the β-amyloid peptide |
| 100 | 100 | LN27 (Zymed) mouse IgG to extracellular domain of APP (antibody) |

Source: patent US20110064740A1
